Measured values published in paper PMC10600506, “A potent and broad‐spectrum neutralizing nanobody for SARS‐CoV‐2 viruses, including all major Omicron strains” (MedComm, 2023).

Molecular target: T1, SARS-CoV-2 Omicron BA.1 Spike receptor-binding domain (SARS-CoV-2 Omicron BA.1, strain, biotin on the Avi tag (for phage screening and BLI); not biotinylated for crystallisation)
T1 construct: Spike glycoprotein of SARS-CoV-2, Omicron BA.1, RBD1 (319-514) domain; also called RBD1; BA.1 RBD; not shown: Avi-tag, C-terminal, kept
Assay: BLI; biotinylated monovalent, […]; 25°C; 20 mM HEPES pH 7.4, 150 mM NaCl, 10 mg/mL BSA
Conditions: both partners purified

B1: Nb4 (VHH)
VHH: AVQLQASGGGFVQPGGSLRLSCAASGWAETFGHMGWFRQAPGKEREFVSAIDWWDTVHYYADSVKGRFTISRDNSKNTVYLQMNSLRAEDTATYYCAYWDMDYLQNSIPVDYWGQGTQVTVSS
notes: also called Nb4 monomer; monomeric Nb4
Kd: ~8 nM
